Reference: publication PMC10338343, “Relaxed targeting rules help PIWI proteins silence transposons”

B1: piRNA-1 g8-g16 target (ssRNA)
RNA: AAAAAAAAAAAAAAACAACCUACAAAAAAA
modifications: 5' monophosphate
B2: piRNA-1 g2-g10 target (ssRNA)
RNA: AAAAAAAAAAAAAAAAAAAAUACUACCUCA
modifications: 5' monophosphate

Molecular target: MIWI (Mus musculus, UniProt Q9JMB7 1-862)
Assay: double-filter binding; piRNA-1 guide; 3.5 mM Mg2+; RBNS: 25 mM HEPES-KOH pH 7.9, 110 mM KOAc, 3.5 mM MgOAc, 0.01% Triton X-100, 2 mM DTT, 10% glycerol, 2.5 mg/ml BSA, 0.5 mg/ml yeast tRNA, 100 nM RNA library, 33 C 2 h; double-filter: 30 mM HEPES-KOH pH 7.5, 120 mM KOAc, 3.5 mM MgOAc, 2 mM DTT, 0.01% Triton X-100, 0.1 nM target, 33 C 2 h
Settings: protein: recombinant, tags: SNAP, 3xFlag, label: 5' 32P

Chain of MIWI (Q9JMB7 whole entry): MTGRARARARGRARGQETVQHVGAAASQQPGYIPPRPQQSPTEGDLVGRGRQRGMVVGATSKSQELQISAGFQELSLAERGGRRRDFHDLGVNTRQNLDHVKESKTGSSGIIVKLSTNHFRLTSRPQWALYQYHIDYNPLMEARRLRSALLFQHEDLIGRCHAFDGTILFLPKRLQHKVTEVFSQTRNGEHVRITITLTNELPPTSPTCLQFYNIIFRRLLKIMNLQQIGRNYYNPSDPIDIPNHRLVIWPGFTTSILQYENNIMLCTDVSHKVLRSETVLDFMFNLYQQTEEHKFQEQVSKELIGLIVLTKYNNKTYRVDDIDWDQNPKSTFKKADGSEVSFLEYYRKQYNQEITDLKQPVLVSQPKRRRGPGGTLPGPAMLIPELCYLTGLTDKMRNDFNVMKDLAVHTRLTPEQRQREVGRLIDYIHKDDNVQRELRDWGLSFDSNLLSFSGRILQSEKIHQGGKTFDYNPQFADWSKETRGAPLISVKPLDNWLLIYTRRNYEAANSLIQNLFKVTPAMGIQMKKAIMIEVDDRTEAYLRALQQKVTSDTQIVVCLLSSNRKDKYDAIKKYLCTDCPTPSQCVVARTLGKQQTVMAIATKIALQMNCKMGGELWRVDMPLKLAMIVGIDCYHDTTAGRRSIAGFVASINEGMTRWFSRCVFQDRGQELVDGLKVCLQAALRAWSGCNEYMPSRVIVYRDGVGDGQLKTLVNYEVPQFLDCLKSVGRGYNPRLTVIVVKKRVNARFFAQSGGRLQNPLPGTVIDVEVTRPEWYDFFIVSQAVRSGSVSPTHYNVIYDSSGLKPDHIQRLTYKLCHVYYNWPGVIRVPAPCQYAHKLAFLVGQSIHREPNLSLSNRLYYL

Row | Binder | Kd (target pairs to guide g8-g16) | Kd (target pairs to guide g2-g10)
1 | B1 | 80 ± 20 pM | –
2 | B2 | – | 14 ± 9 pM
